# Laboratory results published in US20220332804A1 (CSL INNOVATION, published 2022).
# T1: human C2 G677A (human, UniProt P06681 21-752)
# T1 sequence: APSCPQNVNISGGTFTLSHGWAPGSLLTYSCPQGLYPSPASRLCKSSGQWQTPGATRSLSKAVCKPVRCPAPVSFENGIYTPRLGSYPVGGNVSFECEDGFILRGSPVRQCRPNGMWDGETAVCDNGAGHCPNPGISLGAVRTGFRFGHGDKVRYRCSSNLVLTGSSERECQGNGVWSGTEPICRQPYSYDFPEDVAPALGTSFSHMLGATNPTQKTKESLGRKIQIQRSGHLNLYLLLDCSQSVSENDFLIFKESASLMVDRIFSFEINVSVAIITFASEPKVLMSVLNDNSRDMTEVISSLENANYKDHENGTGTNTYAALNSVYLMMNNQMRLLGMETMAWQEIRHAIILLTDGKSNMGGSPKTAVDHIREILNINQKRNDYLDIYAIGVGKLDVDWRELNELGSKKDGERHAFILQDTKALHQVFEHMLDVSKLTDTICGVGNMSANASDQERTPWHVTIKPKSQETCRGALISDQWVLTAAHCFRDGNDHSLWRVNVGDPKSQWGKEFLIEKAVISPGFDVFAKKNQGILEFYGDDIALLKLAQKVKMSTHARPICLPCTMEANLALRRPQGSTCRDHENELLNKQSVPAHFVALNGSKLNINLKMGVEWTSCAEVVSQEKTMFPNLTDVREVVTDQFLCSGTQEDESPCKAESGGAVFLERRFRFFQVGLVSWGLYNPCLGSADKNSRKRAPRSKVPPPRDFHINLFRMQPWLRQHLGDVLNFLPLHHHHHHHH
# T2: human C2 Q489A (human, UniProt P06681 21-752)
# T2 sequence: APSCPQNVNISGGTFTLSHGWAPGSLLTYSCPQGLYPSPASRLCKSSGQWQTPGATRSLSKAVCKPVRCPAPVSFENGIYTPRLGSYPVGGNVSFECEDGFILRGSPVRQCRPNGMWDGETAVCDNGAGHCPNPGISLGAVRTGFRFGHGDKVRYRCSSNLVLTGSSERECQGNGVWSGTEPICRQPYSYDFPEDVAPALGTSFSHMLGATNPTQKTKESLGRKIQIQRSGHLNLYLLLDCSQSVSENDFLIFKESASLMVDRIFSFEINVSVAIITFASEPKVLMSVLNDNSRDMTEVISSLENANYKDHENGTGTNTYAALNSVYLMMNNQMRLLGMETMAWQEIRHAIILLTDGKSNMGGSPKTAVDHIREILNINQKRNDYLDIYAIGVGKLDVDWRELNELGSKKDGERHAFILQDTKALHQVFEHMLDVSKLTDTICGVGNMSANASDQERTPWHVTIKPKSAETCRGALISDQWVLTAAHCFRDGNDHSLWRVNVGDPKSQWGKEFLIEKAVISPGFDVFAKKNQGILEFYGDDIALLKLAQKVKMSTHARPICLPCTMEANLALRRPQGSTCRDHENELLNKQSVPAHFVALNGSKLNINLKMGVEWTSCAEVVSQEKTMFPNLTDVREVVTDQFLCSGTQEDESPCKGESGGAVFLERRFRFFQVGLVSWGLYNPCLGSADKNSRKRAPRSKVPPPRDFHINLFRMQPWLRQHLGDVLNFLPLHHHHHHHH
# T3: human C2 A717S (human, UniProt P06681 21-752)
# T3 sequence: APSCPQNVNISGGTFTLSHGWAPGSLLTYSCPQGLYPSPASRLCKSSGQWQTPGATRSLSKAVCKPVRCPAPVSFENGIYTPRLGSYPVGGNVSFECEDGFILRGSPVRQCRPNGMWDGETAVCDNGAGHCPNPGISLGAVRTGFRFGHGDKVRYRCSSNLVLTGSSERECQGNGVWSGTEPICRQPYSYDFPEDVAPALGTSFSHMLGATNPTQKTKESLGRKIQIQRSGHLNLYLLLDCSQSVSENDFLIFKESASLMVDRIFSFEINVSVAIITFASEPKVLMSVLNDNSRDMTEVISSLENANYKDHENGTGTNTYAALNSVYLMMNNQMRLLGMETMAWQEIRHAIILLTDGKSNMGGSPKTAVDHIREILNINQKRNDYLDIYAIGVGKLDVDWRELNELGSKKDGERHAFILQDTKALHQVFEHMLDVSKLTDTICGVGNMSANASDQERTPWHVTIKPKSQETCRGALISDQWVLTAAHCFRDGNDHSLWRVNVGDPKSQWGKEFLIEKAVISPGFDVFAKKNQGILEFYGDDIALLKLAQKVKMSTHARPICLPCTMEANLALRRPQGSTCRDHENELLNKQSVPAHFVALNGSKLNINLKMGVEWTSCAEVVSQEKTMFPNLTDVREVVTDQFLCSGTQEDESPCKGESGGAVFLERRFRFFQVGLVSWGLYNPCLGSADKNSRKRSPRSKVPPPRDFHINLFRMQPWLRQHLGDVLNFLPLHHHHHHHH
# T4: human C2 P723A (human, UniProt P06681 21-752)
# T4 sequence: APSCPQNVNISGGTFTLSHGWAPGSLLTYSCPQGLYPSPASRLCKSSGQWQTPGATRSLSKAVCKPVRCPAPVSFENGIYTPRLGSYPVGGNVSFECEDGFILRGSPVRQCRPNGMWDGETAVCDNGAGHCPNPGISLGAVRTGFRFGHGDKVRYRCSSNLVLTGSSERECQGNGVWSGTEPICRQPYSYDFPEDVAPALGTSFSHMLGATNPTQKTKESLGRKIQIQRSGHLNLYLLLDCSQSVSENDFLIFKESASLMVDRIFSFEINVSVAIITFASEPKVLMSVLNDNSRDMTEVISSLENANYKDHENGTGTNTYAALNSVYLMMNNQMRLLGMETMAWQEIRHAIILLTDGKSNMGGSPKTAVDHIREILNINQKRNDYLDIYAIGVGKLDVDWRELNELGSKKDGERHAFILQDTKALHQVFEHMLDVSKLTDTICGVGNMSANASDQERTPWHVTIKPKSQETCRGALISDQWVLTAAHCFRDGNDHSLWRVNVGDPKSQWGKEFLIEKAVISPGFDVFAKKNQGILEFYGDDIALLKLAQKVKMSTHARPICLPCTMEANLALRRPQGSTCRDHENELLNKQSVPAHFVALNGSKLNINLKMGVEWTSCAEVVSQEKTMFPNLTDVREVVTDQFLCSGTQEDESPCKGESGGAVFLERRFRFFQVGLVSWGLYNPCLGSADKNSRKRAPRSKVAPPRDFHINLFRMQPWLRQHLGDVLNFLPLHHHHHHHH
# What was measured:
# Assay in all cases: SPR, KD relative to WT C2;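 further: biacore SPR at 37 °C, anti-C2 mAbs captured via immobilised goat anti-human IgG, C2 alanine or serine surface mutants as analytes, 1:1 model fitted, double-referenced sensograms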
# human C2 G677A = target: T1, human C2 G677A
# human C2 Q489A = target: T2, human C2 Q489A
# human C2 A717S = target: T3, human C2 A717S
# human C2 P723A = target: T4, human C2 P723A
binder,measurement,setting,value
"RF16-226 (antibody, human IgG4 S228P, lambda, pH-dependent anti-C2 antibody from a phage display library; also called WT) heavy: not shown light: SYELTQPPSVSVSPGQTARITCSGDALTSKYVAWYQQKSGLAPLLVIYEDTRRPSGIPAKFSGSSSGSVATLTISGAHGDDEADYYCYSTDASGHQRVFGGGTKLTVLSQPKAAPSVTLFPPSSEELQANKATLVCLISDFYPGAVTVAWKADGSPVKAGVETTKPSKQSNNKYAASSYLSLTPEQWKSHRSYSCQVTHEGSTVEKTVAPTECS",Fold diff,human C2 G677A,1 fold
same,Fold diff,human C2 Q489A,10 fold
same,Fold diff,human C2 A717S,41 fold
same,Fold diff,human C2 P723A,12 fold
